Source: paper PMC5072174

Target: fluorescein-conjugated N-terminal histone H3 peptide with trimethylation at the K9 position (UniProt P68431)
Experiment: fluorescence polarisation

| Substance | Kd |
| --- | --- |
| Mpp8 chromodomain with F59 replaced by 3,4,5-trifluorophenylalanine (from UniProt Q99549 55-116) (domain or fragment) | > 100 µM |
| Mpp8 chromodomain with F59 replaced by pentafluoro-phenylalanine (from UniProt Q99549 55-116) (domain or fragment) | > 200 µM |
| Mpp8 chromodomain with F59 replaced by 3,5-difluorophenylalanine (from UniProt Q99549 55-116) (domain or fragment) | 12 µM |
